Measurements taken from patent US20180296525A1, “TREATMENT OF AGE-RELATED MACULAR DEGENERATION AND OTHER EYE DISEASES WITH ONE OR MORE THERAPEUTIC AGENTS” (MacRegen, Inc., priority 2017, published 2018).

Columns and labels:
[1] = tested on: neutral lipids in and on the Bruch's membrane; experiment: Oil red O staining of neutral lipids in and on the Bruch's membrane, geriatric macaques with age-related maculopathy; format: in vivo, Macaca fascicularis; details: injected eyes after 6 monthly intravitreal injections (total 625 μg), compared to eyes injected with placebo
Method: (§1) The macaque study was conducted according to accepted guidelines. […] One eye per animal received 6 monthly injections of the same escalating dosages of L-4F or scrambled L-4F (total of 625 μg) in a 50 μL volume. The second eye per animal was not injected and was just observed.
Clinical laboratory tests including serology, hemograms and liver enzymes were conducted, and ophthalmic examinations were also performed, including fundus photographs, optical coherence tomography (OCT), intraocular pressure testing and blood sampling. After 7 months, all animals were sacrificed and eyes were immediately prepared for histology. Histochemistry was performed with oil red O for neutral lipids and filipin for esterified cholesterol. […]
For staining with oil red O (ORO), specimens were treated with a 0.3% oil red O (Sigma-Aldrich Biochemie GmbH, Hamburg, Germany) solution (in 99% isopropanol) for 30 min at room temperature (RT), followed by immersion in a 60% isopropanol solution for 12 min. […] Image analysis was performed by grading the intensity of ORO staining (red color) of the Bruch's membrane (BrM) with scores ranging from 0 to 4, according to a qualitative evaluation assessed in four different regions in two separate slices from each eye (a total of 8 different regions from each eye). […]

[2] = Tolerability of intravitreal injections, macaque study; format: in vivo, Macaca fascicularis; details: 6 monthly intravitreal injections, all macaques; no significant adverse event or side effect
Method: as §1
Clinical laboratory tests including serology, hemograms and liver enzymes were conducted, and ophthalmic examinations were also performed, including fundus photographs, optical coherence tomography (OCT), intraocular pressure testing and blood sampling. After 7 months, all animals were sacrificed and eyes were immediately prepared for histology. Histochemistry was performed with oil red O for neutral lipids and filipin for esterified cholesterol. Immunohistochemistry was performed against complement factor D (CFD) and the membrane attack complex (MAC, C5b-9), both being markers of activation of the alternative complement pathway.
Circulating hsCRP, which is mainly produced in the liver, is a non-specific marker for systemic inflammation.

[3] = estimated; cited from earlier work
[4] = target: T1, complement factor D (CFD) (Homo sapiens, UniProt P00746); details: patients, monthly intravitreal 10 mg in one eye for 18 months, injected eye, compared to placebo; cited from earlier work
T1 construct: host or cells: Endogenous CFD in the eyes of AMD patients
T1 sequence (P00746 26-253): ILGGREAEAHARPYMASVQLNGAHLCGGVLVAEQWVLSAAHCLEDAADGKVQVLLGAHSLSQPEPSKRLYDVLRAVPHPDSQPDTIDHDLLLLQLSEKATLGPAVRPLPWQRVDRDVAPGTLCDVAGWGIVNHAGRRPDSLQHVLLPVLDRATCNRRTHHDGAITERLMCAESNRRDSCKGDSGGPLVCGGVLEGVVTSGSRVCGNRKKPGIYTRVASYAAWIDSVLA

[5] = without encapsulated cell technology; cited from earlier work

Molecule: Ac-DWFKAFYDKVAEKFKEAF-NH2 [L-4F, Ac-DWFKAFYDKVAEKFKEAF-NH2 acetate salt]
- reduction of lipid deposits from the BrM (oil red O staining) [1]: about 56%
- tolerability [2]: well tolerated

Molecule: aflibercept: soluble fusion protein containing extracellular domains of VEGFRs; anti-VEGF agent
- intravitreal half-life [3]: about 9.0 days

Molecule: bevacizumab: anti-VEGF antibody
- intravitreal half-life [3]: about 9.8 days

Molecule: lampalizumab: antigen-binding fragment (Fab) of a humanized monoclonal antibody targeting complement factor D (CFD)
- reduction in the rate of GA enlargement, and hence the area of GA [4]: about 20%

Molecule: ranibizumab: anti-VEGF antibody fragment
- intravitreal half-life [3]: about 7.1 days

B1: CNTF: ciliary neurotrophic factor, an endogenous neuroprotector (protein, UniProt P26441 1-200, looked up)
Ciliary neurotrophic factor: MAFTEHSPLTPHRRDLCSRSIWLARKIRSDLTALTESYVKHQGLNKNINLDSADGMPVASTDQWSELTEAERLQENLQAYRTFHVLLARLLEDQQVHFTPTEGDFHQAIHTLLLQVAAFAYQIEELMILLEYKIPRNEADGMPINVGDGGLFEKKLWGLKVLQELSQWTVRSIHDLRFISSHQTGIPARGSHYIANNKKM
- half-life of CNTF [5]: 1 to 3 min
